# Target: human CD47 antigen (human) (UniProt Q08722)
# Assay: flow cytometry on human red blood cells at the maximal binding concentration; reference Hu5F9
substance,measurement,value
anti-CD47 IgG4 AO-176 (antibody),percent reduction of RBC binding with respect to Hu5F9,80%

# — patent US20210221886A1
